Test results taken from publication PMC6805484, “The RNA-binding ubiquitin ligase MKRN1 functions in ribosome-associated quality control of poly(A) translation” (Genome Biology, 2019).

Target: T1, recombinant His-PABPC1 (human, UniProt P11940 1-636)
T1 construct: hsPABPC1 expressed from pET53-DEST; also called N-His6-tagged hsPABPC1; source: E. coli Rosetta 2(DE3) pLysS, purified (HisTrap FF, HiTrap Heparin HP, Superdex 200); not shown: His6, N-terminal, kept
Assay: pull-down; biotinylated 42-nt RNA (22 nt of the SRSF4 3′ UTR followed by A20, or by 20 V as control) on NeutrAvidin agarose beads, incubated with 2 μg His-MKRN1-WT and/or His-PABPC1, 1 h at 4 °C, 50 mM Tris-HCl pH 7.4, 500 mM KCl, 12.5 mM MgCl2, 1% Triton X-100; SDS-PAGE with Coomassie staining
Conditions: both partners purified

T1 sequence (P11940 whole entry): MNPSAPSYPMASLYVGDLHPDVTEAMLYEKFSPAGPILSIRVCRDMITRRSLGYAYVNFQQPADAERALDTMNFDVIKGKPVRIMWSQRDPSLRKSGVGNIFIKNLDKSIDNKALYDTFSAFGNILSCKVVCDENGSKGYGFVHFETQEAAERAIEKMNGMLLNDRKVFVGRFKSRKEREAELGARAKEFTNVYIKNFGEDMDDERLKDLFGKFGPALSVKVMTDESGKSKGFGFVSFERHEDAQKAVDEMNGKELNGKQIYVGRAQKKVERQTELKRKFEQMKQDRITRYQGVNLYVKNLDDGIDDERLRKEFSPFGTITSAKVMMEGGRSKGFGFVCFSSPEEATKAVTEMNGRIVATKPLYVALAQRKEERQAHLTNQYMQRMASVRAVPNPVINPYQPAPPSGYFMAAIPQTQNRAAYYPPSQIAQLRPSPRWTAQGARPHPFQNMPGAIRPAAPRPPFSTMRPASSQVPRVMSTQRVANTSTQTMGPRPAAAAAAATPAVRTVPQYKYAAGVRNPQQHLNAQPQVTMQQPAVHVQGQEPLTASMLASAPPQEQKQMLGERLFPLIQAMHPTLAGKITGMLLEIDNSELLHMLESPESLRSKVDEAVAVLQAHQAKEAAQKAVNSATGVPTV

binding result: binds
B1: recombinant His-MKRN1^wt (natural protein, human, UniProt Q9UHC7 1-482, looked up)
chain: MAEAATPGTTATTSGAGAAAATAAAASPTPIPTVTAPSLGAGGGGGGSDGSGGGWTKQVTCRYFMHGVCKEGDNCRYSHDLSDSPYSVVCKYFQRGYCIYGDRCRYEHSKPLKQEEATATELTTKSSLAASSSLSSIVGPLVEMNTGEAESRNSNFATVGAGSEDWVNAIEFVPGQPYCGRTAPSCTEAPLQGSVTKEESEKEQTAVETKKQLCPYAAVGECRYGENCVYLHGDSCDMCGLQVLHPMDAAQRSQHIKSCIEAHEKDMELSFAVQRSKDMVCGICMEVVYEKANPSERRFGILSNCNHTYCLKCIRKWRSAKQFESKIIKSCPECRITSNFVIPSEYWVEEKEEKQKLILKYKEAMSNKACRYFDEGRGSCPFGGNCFYKHAYPDGRREEPQRQKVGTSSRYRAQRRNHFWELIEERENSNPFDNDEEEVVTFELGEMLLMLLAAGGDDELTDSEDEWDLFHDELEDFYDLDL
notes: hsMKRN1 expressed from pET53-DEST; also called N-His6-tagged hsMKRN1; source: E. coli Rosetta 2(DE3) pLysS, purified (HisTrap FF, HiTrap Q HP, Superdex 200); not shown: His6, N-terminal, kept
